The text below walks through data of US20110318356A1 (Novo Nordisk, published 2011).

The target of experiment [1] is T1, recombinant full length human tissue factor pathway inhibitor (TFPI) (human, UniProt P10646 29-304).
T1 construct: also called TFPI1; human TFPI
Kind of experiment: SPR (Biacore). In general terms: Surface plasmon resonance follows binding to a sensor surface in real time, without labels.
Description: The affinity analyses were done using SRP as described below.
These were followed by a direct binding kinetic procedure on selected mAb constructs, with the monoclonal antibody covalently coupled via free amine groups to the carboxymethylated dextrane membrane (CM5) on the sensor chip surface.

Experiment [2] has as its target T1, recombinant full length human tissue …. Description: SPR (Biacore), TFPI.
The target is the same in experiment [3]. Description: cell-based or functional assay.
For experiment [4] the target is unchanged. Kind of experiment: cell-based or functional assay. The source holds these as a separate data set.
Experiment [5] shares this target. Kind of experiment: SPR (Biacore), recombinant human TFPI.
The target is the same in experiment [6]. Kind of experiment: SPR (Biacore T-100), mAb immobilised, full length human TFPI.
Protocol: (§1) Binding interaction analysis was obtained by Surface Plasmon Resonance in a Biacore T-100 instrument. Capture of the relevant monoclonal antibody at a fixed concentration was obtained by direct immobilization to a CM5 chip of the mAb to a level of 500-1000 RU in 10 mM sodium acetate pH 4.5-5.0. […] Running and dilution buffer: 10 mM HEPES, 150 mM, 0.005% p20, pH 7.4. Regeneration was obtained by 10 mM Glycine, pH 1.7. Determination of kinetic and binding constants (kₒₙ, koff, KD) was obtained assuming a 1:1 interaction of TFPI and the antibody of interest using the Biacore T100 evaluation software. […] Regeneration of the chip was obtained by 10 mM Glycine, pH 1.7.
For experiment [7], the target named is T2, human TFPI short form (1-161 amino acid residues) (human, UniProt P10646 29-189).
T2 construct: also called TFPI161; TFPI (1-161)
Kind of experiment: SPR (Biacore T-100), mAb immobilised, TFPI161 (K1 and K2 domains).
Protocol: as §1

Experiment [8] concerns the target T1, recombinant full length human tissue …. Description: SPR (Biacore T-100), mAb immobilised on CM5 chip, full length human TFPI, 1:1 model.
Protocol: as §1

B1: HzTFPI4F36 (mAbTFPI2021) humanized monoclonal antibody (antibody, human IgG4 S228P, kappa, V domains shown)
VH: EVQLVESGGGLVKPGGSLRLSCAASGFTFSNYAMSWVRQTPEKRLEWVATISRSGSYSYFPDSVQGRFTISRDNAKNSLYLQMNSLRAEDTAVYYCARLGGYDEGDAMDSWGQGTTVTVSS
VL: DIVMTQTPLSLSVTPGQPASISCKSSQSLLESDGKTYLNWYLQKPGQSPQLLIYLVSILDSGVPDRFSGSGSGTDFTLKISRVEAEDVGVYYCLQATHFPQTFGGGTKVEIKR
notes: human kappa/IgG4(S241P); also called mAb2021; mAbTFPI4F36
Turning to B1, the Kd is ~0.025 nM in experiment [1]; 0.026 nM in experiment [2]; 0.026 nM in experiment [5]; 0.015 nM in experiment [6]; 0.0455 nM in experiment [7]; 0.015 nM in experiment [8]. The “IC50, neutralization of TFPI inhibition of FXa” value in experiment [3] amounted to 12.6 nM. Besides, in experiment [4], the “IC50, neutralization of TFPI inhibition of FVIIa/TF/FX” value was 3.8 nM. The koff in experiment [8] came out at 3.58e-05 s⁻¹. Further, the kon in experiment [8] was 2.39e+06 M⁻¹ s⁻¹.

As usually defined, the Kd is the free concentration of one partner at which half of the binding sites on the other are occupied at equilibrium, for simple one-to-one binding. Broadly, the koff is the rate constant with which the complex falls apart. What is called kon is the second-order rate constant of association.
